Target: BSA (Bos taurus, UniProt P02769)
Test: ITC

Sequence of BSA (P02769 25-607): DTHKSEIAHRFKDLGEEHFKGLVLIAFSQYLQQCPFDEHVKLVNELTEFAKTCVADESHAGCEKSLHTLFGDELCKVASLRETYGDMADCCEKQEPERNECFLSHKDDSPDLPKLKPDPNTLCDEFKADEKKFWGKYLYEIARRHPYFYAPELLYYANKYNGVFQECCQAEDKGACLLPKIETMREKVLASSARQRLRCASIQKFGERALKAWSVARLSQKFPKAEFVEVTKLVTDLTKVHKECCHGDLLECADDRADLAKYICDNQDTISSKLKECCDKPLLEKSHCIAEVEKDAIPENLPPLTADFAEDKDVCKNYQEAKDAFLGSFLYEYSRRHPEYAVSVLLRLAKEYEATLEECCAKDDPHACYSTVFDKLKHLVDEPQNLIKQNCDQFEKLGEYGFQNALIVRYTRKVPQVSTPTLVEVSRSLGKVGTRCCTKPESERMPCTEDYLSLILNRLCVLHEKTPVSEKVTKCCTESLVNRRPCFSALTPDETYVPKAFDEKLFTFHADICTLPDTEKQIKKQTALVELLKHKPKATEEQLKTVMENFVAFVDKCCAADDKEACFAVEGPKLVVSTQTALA

B1: PYL10 (protein)
chain: MNGDETKKVESEYIKKHHRHELVESQCSSTLVKHIKAPLHLVWSIVRRFDEPQKYKPFISRCVVQGKKLEVGSVREVDLKSGLPATKSTEVLEILDDNEHILGIRIVGGDHRLKNYSSTISLHSETIDGKTGTLAIESFVVDVPEGNTKEETCFFVEALIQCNLNSLADVTERLQAESMEKKI
Kd: 3000 nM

Source: paper PMC4456664 (2015)
